Laboratory results published in patent publication US20240115742A1, “FLUORINATED FIBERS FOR MULTIMODAL 1H AND 19F MRI, ULTRASOUND, FLUORESCENCE DETECTION AND CONFORMATIONAL AND TEMPERATURE DETECTION BY 19F MRS” (New York University, priority 2022, published 2024).
Like-named read-outs stand apart in the source and are kept apart here. Square brackets hold non-standard residues; d marks the D form. Ends that are not written are not given here. LTF = trifluoroleucine

Experiments:
[1] = Confocal microscopy of CCM-bound fibers; type: physicochemical; details: 50 μM protein saturated with CCM, pH 4.0
Description: Confocal Microscopy. Protein bound to CCM was studied by measuring 50 μM protein samples saturated with CCM as determined by fluorescent spectroscopic drug binding with a final 1% v/v DMSO (or 2×Kd). 10 μL of protein was added to a micro slide and a 22×22 mm #1 microscope cover glass. Slides were inverted and imaged using a Leica TCS SP8 X Laser Confocal Microscope using a dry 10× objective at RT. CCM was excited using a 460 nm line of the laser, and images were taken using a 470 to 550 nm detection window.
Confocal Microscopy. Q2LTF was diluted to 50 μM and saturated with 40 μM of curcumin (solubilized in DMSO) as determined by the binding affinity in drug-binding experiments. […] 5 μL of sample was deposited onto a microslide and covered with a 22×22 mm #1 microscope cover glass. Images were taken with a Leica TCS SP8 X laser confocal microscope using a dry 10× objective at RT. Samples were excited at 460 nm and images were taken with a 470-550 nm detection window.

[2] = CD temperature scans (melting temperature); type: physicochemical
Description: Circular Dichroism Spectroscopy. Secondary structure was first assessed using the Jasco J-815 CD spectrometer with a PTC-423S single position Peltier temperature control system. Wavelength scans were performed from 190 to 250 nm using 15 μM samples at 1 nm step sizes at 25° C. Temperature scans were performed at α-helical minimum 222 nm from 20 to 85° C. The mean residue ellipticity (MRE) was calculated as described previously. MRE at 222 nm and 208 nm and their ratios were used to assess relative helicity.
Circular Dichroism Spectroscopy. The secondary structure of Q2LTF and QLTF was assessed using a Jasco J-815 circular dischroism (CD) spectrometer with a PTC-423S single position Peltier temperature control system. Wavelength scans were performed from 195 to 250 nm at 1 nm step sizes by diluting the protein into water (at approximately 10 μM) in order to minimize the effects of sodium chloride. […] The mean residue ellipticity (MRE) was calculated as described.

[3] = ATR-FTIR peak deconvolution of secondary structure; type: physicochemical
Description: Attenuated Total Reflectance-Fourier Transform Infrared Spectroscopy. Secondary structure of protein fiber variants was confirmed using attenuated total reflectance-Fourier transform infrared (ATR-FTIR) spectroscopy using the Nicolet 6700 Fourier Transform Infrared Spectrometer equipped with a diamond ATR accessory and a mercury cadmium telluride (MCT)-A detector. Spectra were collected for 5 μL of 500 μM protein from 4000-400 cm^−1 with 0.5 cm^−1 increments at room temperature (RT). For CCM bound protein, protein was bound at a final concentration of 500 μM and saturated with CCM as determined by fluorescent spectroscopic drug binding with a final 1% v/v DMSO. Sample spectra were normalized using buffer background and analyzed from 1700-1600 cm^−1 corresponding to the amide I region. Peaks were deconvoluted using Gaussian functions in PeakFit software until the goodness of fit reached r^2≥0.99. Peaks were associated with secondary structure were determined by methods known in the art.
(§1) Attenuated Total Reflectance-Fourier Transform Infrared Spectroscopy. Secondary structure of Q2 protein was confirmed using attenuated total reflectance-Fourier transform infrared (ATR-FTIR) spectroscopy using the Nicolet 6700 Fourier Transform Infrared Spectrometer equipped with a diamond ATR accessory and a mercury cadmium telluride (MCT)-A detector. Spectra were collected for 5 μL of 2 mM protein from 4000-400 cm^−1 with 0.5 cm^−1 increments. Sample spectra were normalized using buffer background and analyzed from 1700-1600 cm^−1 corresponding to the amide I region. Peaks were deconvoluted using Gaussian functions in PeakFit software until the goodness of fit reached r^2>0.99.
as §1, with “of Q2LTF and QLTF” for “of Q2”, “using a” for “using the”, “of 1” for “of 2”, “with 4.0” for “with 0.5”, “reached r^2≥0.99.” for “reached r^2>0.99.”
Attenuated Total Reflectance-Fourier Transform Infrared Spectroscopy. Secondary structure before (solution) and after gelation (gel) was also assessed by peak deconvolution of attenuated total reflectance-Fourier transform infrared (ATR-FTIR) spectra. ATR-FTIR measurements were performed using a Nicolet 6700 Fourier Transform Infrared Spectrometer equipped with a mercury cadmium telluride (MCT)-A detector. Spectra were collected for 5 μL samples of protein at 2 mM from 4000-400 cm^−1 with a 4.0 cm^−1 resolution, normalized, and buffer-subtracted prior to analysis from 1700-1600 cm^−1, corresponding to the amide I region. ATR-FTIR measurements were performed immediately after concentration to 2 mM for solution measurements and after. Peaks were deconvoluted using Gaussian functions in PeakFit software until the goodness of fit reached r^2≥0.99.

TEM of protein fibers = type: physicochemical; details: fibers, 50 mM NaH2PO4 pH 4.0
Description: (§2) Transmission Electron Microscopy. Transmission electron microscopy (TEM) images were taken with a FEI Talos L120C transmission electron microscope. Protein fiber samples were diluted to 50 μM and 3 μL was spotted on Formvar/carbon-coated copper grids followed by 5 μL wash with water, and 3 μL staining with 1% v/v uranyl acetate solution each with incubation times of 1 min at RT. Fibrils were sized in ImageJ software (Version 1.52q).
as §2, with “Samples” for “Protein fiber samples”, “by a” for “by”, “min. Between steps, filter paper was used to wick the grids. Following imaging, fibrils” for “min at RT. Fibrils”

[4] = previous studies, cited from earlier work

C2: C variant with redistributed electrostatic patches, SEQ ID NO: 22 (MRGSHHHHHHGSIEGRMQLAKHMLKELQKTNALQSVRTLLQQQVEEITQLKETVENSDSS) [Protein C2]
fiber diameter after CCM binding (confocal) [1]: 6.89±2.54 μm
melting temperature ([2]; CCM-bound, pH 4.0): 69.6±7.8 °C
melting temperature ([2]; native, 50 mM NaH2PO4 pH 4.0): 49.4±1.1 °C
aggregated strands ([3]; native): 5.3%
antiparallel β-sheet/aggregated strands ([3]; native): 15.0%
aggregated strands ([3]; w/CCM): 9.0%
antiparallel β-sheet/aggregated strands ([3]; w/CCM): 4.8%
average protein fiber diameter (TEM) (TEM of protein fibers): 73±18 nm

QLTF: Q with leucines replaced by trifluoroleucine, SEQ ID NO: 19 (MRGSHHHHHHGSIEGRVKEITF[LTF]KNTAPQM[LTF]RE[LTF]QETNAA[LTF]QDVRE[LTF][LTF]RQQSK[LTF]; ends and bridges not checked) [reference compound]
melting temperature [4]: 52 °C
aggregated strands ([3]; fluorinated constructs, Tris buffer): 17.4 % composition

B1: C: cartilage oligomeric matrix protein coiled-coil with His tag, SEQ ID NO: 21 (protein)
chain: MRGSHHHHHHGSIEGRAPQMLRELQETNAALQDVRELLRQQVKEITFLKNTVMESDASGKL
modifications: His tag
melting temperature ([4]; Na2HPO4 pH 8.0): 41-42 °C
fiber diameter after CCM binding (confocal) [1]: 4.91±1.49 μm
melting temperature ([2]; CCM-bound, pH 4.0): 51.8±4.3 °C
melting temperature ([2]; native, 50 mM NaH2PO4 pH 4.0): 56.0±2.6 °C
aggregated strands ([3]; native): 10.0%
antiparallel β-sheet/aggregated strands ([3]; native): 11.5%
aggregated strands ([3]; w/CCM): 20.8%
antiparallel β-sheet/aggregated strands ([3]; w/CCM): 0.0%
average protein fiber diameter (TEM) (TEM of protein fibers): 47±22 nm
